Data on 16 molecules can be found in patent US20220112288A1 (published 2022).

Positions count from the first letter of the chain named.

B1: 75110_01D24A (antibody, V domains shown)
VH: QVQLQQWGAGLLKPSETLSLTCAVYGGSFSGYYWSWIRQPPGKGLEWIGEINHSGSTNYNPSLKSRVTISVDTSENQFSLKLNSVTAADTAVYYCARLVNWFDPWGQGTLVTVSS
VL: EIQMTQSPSSVSASVGDRVTITCRASQDISNWLAWYQQKPGKAPNLLIFAASSLQTGVPSRFSGSGSGTDFTLTISSLQPDDFATYYCQQANSFPYSFGQGTNLGIK
notes: Tested as clonal hybridoma supernatant (AlivaMab Mouse Kappa; anti-mouse Fc detection)
B2: 75110_01N04A (antibody, V domains shown)
VH: EVQLVESGGGLVQPGGSLRLSCAASGFTFSNYDMHWVRQATGKGLEWVSTIGTAGDTYYPGSVKGRFTISRENAKNSLYLQMNSLRAGDTAVYYCARGGDFYYGLDVWGQGTTVTVSS
VL: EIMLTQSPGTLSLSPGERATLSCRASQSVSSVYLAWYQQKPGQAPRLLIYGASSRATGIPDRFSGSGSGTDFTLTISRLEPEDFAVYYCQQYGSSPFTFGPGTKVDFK
notes: Tested as clonal hybridoma supernatant (AlivaMab Mouse Kappa; anti-mouse Fc detection); also called Sib1.13
B3: 75110_01J17A (antibody, V domains shown)
VH: B2 VH with N31S, A40G, G55D, K75E, F101Y, L105M
VL: EIVLAQSPGTLSLSPGERATLSCRASQSVYISYLAWYQQKPGQAPRLLIYGASSRATGIPDRFSGSGSGTDFTLTITRLEPEDFAVYYCQQFGSSPFTFGPGTKVDFK
notes: Tested as clonal hybridoma supernatant (AlivaMab Mouse Kappa; anti-mouse Fc detection); also called Sib1.12
B4: 75110_01G11A (antibody, V domains shown)
VH: B2 VH with N31S, K75R, Y79F, F101Y, L105M
VL: B3 VL with A5T, S14F, S28N, V29T, I31S, S54N, T77S, F92H, S94T, F107I
notes: Tested as clonal hybridoma supernatant (AlivaMab Mouse Kappa; anti-mouse Fc detection); also called Sib1.6
B5: 75110_02I18A (antibody, V domains shown)
VH: B2 VH with L4V, N31S, D100Y, F101Y, L105M
VL: B3 VL with A5T, Y30S, I31S, A44S, Y50H, F63V, T77S, F92Y, F107I
notes: Tested as clonal hybridoma supernatant (AlivaMab Mouse Kappa; anti-mouse Fc detection); also called 75110_02118A; Sib1.14
B6: 75110_01E08A (antibody, V domains shown)
VH: B2 VH with S30N, G61A, S70Y, F101Y, L105M
VL: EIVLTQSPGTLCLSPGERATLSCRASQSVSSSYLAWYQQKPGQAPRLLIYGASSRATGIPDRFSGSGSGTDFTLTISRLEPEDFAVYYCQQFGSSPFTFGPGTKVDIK
notes: Tested as clonal hybridoma supernatant (AlivaMab Mouse Kappa; anti-mouse Fc detection); also called Sib1.11
B7: 75110_01K10A (antibody, V domains shown)
VH: B2 VH with G10A, S30R, F101Y, L105M
VL: B3 VL with A5T, G9D, V29L, Y30S, I31S, S32V, S66T, T77S, F92Y, F107I
notes: Tested as clonal hybridoma supernatant (AlivaMab Mouse Kappa; anti-mouse Fc detection); also called Sib1.3
B8: 75110_02E08A (antibody, V domains shown)
VH: QVQLQESGPGLVKPSETLSLTCTVSGGSISTYYWTWIRQPAGKGLEWIGRVYTSGDTNYNPSLKSRVAMSLDTSKNQFSLKLSSVTAADTAVYYCARDSGALYSWNYGDAFDIWGQGTMVTVSS
VL: DIQMTQSPSAMSASVGDRVTITCRASQDISNYLAWFQQKPGKVPKRLIYAASSLQSGVPSRFSGSGSGTEFTLTISSLQPEDFATYYCLQHNSYPRTFGQGTKVEIK
notes: as for B1
B9: 75110_02E22A (antibody, V domains shown)
VH: QVQLQESGPGLVKPSETLSLTCTVSGGSISSFYWSWIRQPAGKGLEWIGRIYTSGSTNYNPSLKSRVTMSVDTSKNQFSLKLSSVTAADTAVYYCARELEKRNYYGMDVWGQGTTVTVSS
VL: DIQMTQSPSSLSASVGDRVTITCQASHDISNYLNWYQQKPGKAPKLLIFDASTLETGVPSRFSGSGSGTYFTFTIRSLQPEDIATYYCQQYDSLPLTFGGGTKVEIK
notes: Tested as clonal hybridoma supernatant (AlivaMab Mouse Kappa; anti-mouse Fc detection); also called Sib7.1
B10: 75110_01C18A (antibody, V domains shown)
VH: EVQLVESGGGLIQPGGSLRLSCAASGFTVSSNYMNWVRQAPGKGLEWVSVIYAGDNTYSADSVKGRFTISRDNSNNTLCLQMNSLRAEDTAVYYCAREGGTTGAFDIWGQGTMVTVSS
VL: DIQMTQSPSSVSASVGDRVTITCRASQGINSWLAWYQQKPGKAPKLLIYAASSLQSGVPSRFSGSGSGTDFTLTISSLQPEDFATYYCQQGNSFPYTFGQGTKLEIK
notes: as for B1
B11: 75110_02I16A (antibody, V domains shown)
VH: QVQLQQWGAGLLKPSETLSLTCDVYGGSFSGYYWTWIRQPPGKGLEWIGEINHSGTTNSNPSLKSRVTISVDTSKSQFSLRLSSVTAADTAVYFCTRELNWFDPWGQGTLVTVSS
VL: B10 VL with G28D, N30A, S31N, K45Q, Q55L, S56G, T69A, Q79H, G91A
notes: Tested as clonal hybridoma supernatant (AlivaMab Mouse Kappa; anti-mouse Fc detection); also called 75110_02116A
B12: 75110_01H18A (antibody, V domains shown)
VH: B1 VH with P40S, H53Q, E75K, N83S, L98V, V99I, P104S
VL: B10 VL with N30S, L54F, P80T, G91A, K103R
notes: Tested as clonal hybridoma supernatant (AlivaMab Mouse Kappa; anti-mouse Fc detection); also called Sib6.1
B13: 75110_03C01A (antibody, V domains shown)
VH: B1 VH with P40S, H53Q, E75K, N76D, N83S, L98V, V99I, P104S, T109S
VL: B10 VL with N30S, K42N, A50D, L54F, P80T, G91A
notes: Tested as clonal hybridoma supernatant (AlivaMab Mouse Kappa; anti-mouse Fc detection); also called Sib6.2
B14: 75110_02K11A (antibody, V domains shown)
VH: QVQLQESGPGLVKPSQTLSLTCTVSGGSISSGFYYWTWIRQHPGKGLEWIGYISYSGNTYYNPSFKSRLTISVDTSKSQFSLKLSSVTAADTAVYYCARDRPSNFDAFDIWGQGTMVTVSS
VL: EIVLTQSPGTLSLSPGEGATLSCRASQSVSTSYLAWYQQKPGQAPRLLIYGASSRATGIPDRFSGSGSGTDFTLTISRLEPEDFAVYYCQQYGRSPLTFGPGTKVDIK
notes: Tested as clonal hybridoma supernatant (AlivaMab Mouse Kappa; anti-mouse Fc detection); also called Sib3.1
B15: 75110_01J09A (antibody, V domains shown)
VH: EVQLVESGGGLVQPGGSLRLSCVASGFTFSSYWMSWVRQAPGKGLEWVANTKEDGSDKYYVDSVKGRFTICRDNAKNSLYLQMNSLRAEDTAVYYCAREGGQWLALDYWGQGTLVTVSS
VL: DIQMTQSPSSVSASVGDRVTINCRASQGISSWLAWYQQKPGKAPNLLIFGASSLQSGVPSRFSGSGFGTDFSLTITTLQPEDFATYHCQQANSFPWTFGQGTKVEIK
notes: Tested as clonal hybridoma supernatant (AlivaMab Mouse Kappa; anti-mouse Fc detection); also called Sib2.2
B16: 75110_01L08A (antibody, V domains shown)
VH: QVQLQESGPGLVKPSETLSLTCTVSGGSISHYYWSWIRQPPGKGLEWIGYIHYSGTTNYNPSLKSRVTISVDTSKNQLSLKLRSVTAADTAVYYCARDQGFSSGGMDVWGQGTTVTVSS
VL: not shown
notes: as for B1

The test concerns the target T1, human CD4 (human, UniProt P01730 26-458).
T1 construct: whole, on cells; also called hCD4
Nature of the test: FACS, clonal hybridoma supernatant on human PBMCs. For orientation: In flow cytometry, cells or beads pass a laser one at a time.
B1: the “% CD4 Stain” value came out at 32.9% and the “gMFI of CD4+” value worked out at 134000 gMFI.

For B2, the “% CD4 Stain” value was 37.2% and the “gMFI of CD4+” value came to 205000 gMFI.

With B3, the “% CD4 Stain” value stood at 35.2% and the “gMFI of CD4+” value was 167000 gMFI.

With B4, the “% CD4 Stain” value worked out at 39% and the “gMFI of CD4+” value turned out to be 164000 gMFI.

For the molecule B5, the “% CD4 Stain” value turned out to be 40.5% and the “gMFI of CD4+” value worked out at 162000 gMFI.

Take B6: the “% CD4 Stain” value stood at 36.5% and the “gMFI of CD4+” value was 113000 gMFI.

B7: the “% CD4 Stain” value was 38% and the “gMFI of CD4+” value came out at 191000 gMFI.

As to B8, the “% CD4 Stain” value came to 35.4% and the “gMFI of CD4+” value is 115000 gMFI.

As to B9, the “% CD4 Stain” value turned out to be 32.8% and the “gMFI of CD4+” value was determined as 268000 gMFI.

On to B10, for which the “% CD4 Stain” value came out at 34.1% and the “gMFI of CD4+” value came out at 205000 gMFI.

With B11, the “% CD4 Stain” value was 36.1% and the “gMFI of CD4+” value turned out to be 145000 gMFI.

B12: the “% CD4 Stain” value was found to be 48.8% and the “gMFI of CD4+” value was found to be 101000 gMFI.

As to B13, the “% CD4 Stain” value stood at 36.1% and the “gMFI of CD4+” value came to 169000 gMFI.

With B14, the “% CD4 Stain” value was 28.2% and the “gMFI of CD4+” value stood at 203000 gMFI.

B15: the “% CD4 Stain” value was 34.8% and the “gMFI of CD4+” value was 143000 gMFI.

Turning to B16, the “% CD4 Stain” value was 35.3% and the “gMFI of CD4+” value was 208000 gMFI.
